We go through one substance from US8372950B2, “IgG binding peptide” (Kagoshima University, priority 2006, dated 2013).

The nature of the data set: molecular sieve chromatography of acid-denatured MRA. It is filed as physicochemical. The note with it: acid treated pH 2.7, 30° C., 10 minutes, purified on IMGpep-4K6R column, FIG. 15C. As for the experimental part: First, 20 μl of 1 M glycine-HCl (pH 2.7) was added to 200 μl of humanized anti-human IL-6 receptor IgG antibody (MRA) (2000 μg/ml, PBS solution). The solution was incubated for 10 minutes at 30° C. and then 30 μl of 1 M Tris-HCl (pH 8.7) was added thereto for neutralization to prepare an acid-treated antibody sample. Also, a biotinylated IMGPep-4K6R peptide-immobilized column was prepared in a manner similar to that in Example 10. An acid-treated antibody sample was injected at a flow rate of 0.4 ml/min to the column and then gradient elution was carried out using from 20 mM phosphate buffered saline (PBS, pH 7.0) containing 0.1M NaCl to 0.1M glycine-HCl (pH 2.5) containing 0.1M NaCl. The thus eluted IgG was a purified acid-denatured humanized anti-human IL-6 receptor IgG antibody (MRA).
Subsequently, the purified acid-denatured MRA was subjected to molecular sieve chromatography using a HiLoad Sperdex 200 16/60 column (GE Healthcare). Similarly, untreated MRA, an acid-treated antibody sample, and a flow-through fraction (undenatured MRA) obtained via injection of an acid-treated antibody sample to a biotinylated IMGPep-4K6R peptide-immobilized column, were also separately subjected to molecular sieve chromatography using a HiLoad Sperdex 200 16/60 column (GE Healthcare). […]

For “MRA: Humanized anti-human IL-6 receptor monoclonal IgG antibody, Chugai Pharmaceutical”, the “monomers in purified acid-denatured MRA” value was “approximately 65%”.
